According to patent publication US9539289B2, “Immunostimulatory compositions and methods of manufacture” (APIMED MEDICAL HONEY LIMITED, priority 2012, dated 2017):

Columns and labels:
apisimin = target: T1, apisimin (Apis mellifera, UniProt Q8ISL8); assay: Dot blot assay of apisimin self binding versus insulin and bovine albumin (Example 1, FIG. 1); details: darker colour means greater binding
T1 sequence (Q8ISL8 25-78): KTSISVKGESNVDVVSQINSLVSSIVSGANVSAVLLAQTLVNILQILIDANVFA
Experimental: FIG. 1 illustrates the results of a dot blot assay to test the self binding properties of apisimin against two other proteins not know to be self binding being insulin and bovine albumin. 1=apisimin, 2=insulin, 3=bovine albumin. The darker the colour the greater the degree of binding;
An experiment was conducted to confirm the self-binding nature of apisimin versus other peptides being insulin and bovine albumin.

monocyte cell line = assay: TNF-α response of a monocyte cell culture after 4 hours of treatment (Examples 3, 5-8); type: cell-based; details: 100 ng/ml dose
Experimental: The immunostimulatory effect was then tested using a variety of samples. Prior to the trial a monocyte cell culture was produced in order to eliminate any natural variation errors. The monocyte culture was then stimulated using a variety of agents and TNF-α concentration measured after 4 hours of treatment with the various reagents.
LPS was used as a positive control being a known and strongly significant stimulant. Cells alone were used as a negative control.
The immunostimulatory effect was tested further using a variety of samples including royal jelly. Prior to the trial a monocyte cell culture was produced in order to eliminate any natural variation errors. The monocyte culture was then stimulated using a variety of agents and TNF-α concentration measured after 4 hours of treatment with the various reagents.
The immunostimulatory effect was tested further using a variety of honey derived AGP compounds and apisimin. […] The monocyte culture was then stimulated using a variety of agents and TNF-α concentration measured after 4 hours of treatment with the various reagents.
The immunostimulatory effect was tested further using a honey derived AGP compound, apisimin and Polymyxin B acting as an LPS inhibitor. […] The monocyte culture was then stimulated using a variety of agents and TNF-α concentration measured after 4 hours of treatment with the various reagents. […]

Substance | self binding (dot blot colour) (apisimin) | TNF-α response (monocyte cell line)
albumin: bovine albumin, comparison protein not known to be self binding | weak or not self binding | 
insulin: comparison protein not known to be self binding | weak or not self binding | 
lipopolysaccharide [LPS] |  | approximately 1700 μg/ml
